Laboratory results reported in a protein production outcome set (Wang et al. 2014).

Assay: label from the status in PepcDB records
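Also: failed if final PepcDB status was selected cloned or expressed and not failed if soluble or beyond.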

Sequence	protein production
MSWLIHAGEGRQYQVAPPVSWSQSYAEARMTDIQRLDDQTVERIAAGEVVERPASVVKELVENAIDADASRVDVVVEAGGTDGIRVTDDGIGMDREAVKTAVEEHTTSKIRDIADLEGGVGTLGFRGEALHAIGAVSRLTIRTRPRGGDVGTELVLEGGDVTSVSPAGCPEGTTMAVEDLFYNVPARRKYLKQESTEFAHVNTVVASYALANPDVAVSLTHGDRETFSTTGQGDLRETVMSVYGREVAESMISVGAGSEATGSGDEMDSFPDGPLDGVHGLVSHPETNRAGREYLSTYVNGRYVRAGTVRDAVIDAYGTQIAPDRYPFAVLFLDVPAGDVDVNVHPRKMEVRFADDEGVREQVRTAVEDALLREGLLRSTAPRGRSAPEQTEITPESDGATDSGGERAAPNGRDAIDDATTSGQTDTTATENSAEAPAQEPDTAPTARPDGTQTETGNCESSDTAPSIQSADTKPSSETGRTDGTSGESGTGQTGGSVSGGDSDSERPGASATGQTAAERGERKFTGGQEQARLGDDPEATHESLPSMRILGQLADTYVVAETDDGLVLVDQHAADERVNYERLKAKFEGETTTQALANPVELGLTAREAEVFDRRSDALASLGFHTARTGERSVEVRTLPGVIADAAGPDIVRDVLGAFVAGDDEAAATVEAAADELLGDLACYPSVTGNTSLTEGSVRELLAALDDCENPYACPHGRPTVIHIDRQELEDRFERDYPGHGGRRR	failed
MSYAKEMLDAIEAGQMETAKQLFTQVLAHDDDETQYNLAEELYALGFNGQAKRLYQGLLGRYPDQGDLATALADIAVSDGDTDAALNYLSRIQPGDPAYVQSLVSAADVYQTLGLYEVSEQKLLEAKRLAPDEPVVTFALGEFYFDWGHFAEAISAYNELLAAGTTELAGVNIEARLAASLAQTGQYEDAVAAYEDVGVDALDLNGRFELGGLYLQLDDPAKAITNLQAVIDSDPSYANAYLPLARAYEAQNQPDKALDTVQAGVMVDDTNPTLYALGGKLALSEDNVKLAETYLQKALAIDPEDQGNMLAWSNFLVQEERDQENVDFLDQIDRSGDVDPQIYWNMAKSYDRLENIKKARENYLLAFNRFQDSPDFLHDIIDFFQSTGARAELKAALVRYLKLVPTDDEMQARLDELNAETDLEHHHHHH	not failed
MSYEAIMLERNGAVGVLTFNRPEVLNAYNRTLAADIITGFNELVADKSVRAIVLTGAGKAFMAGADINMVNGWTKLGNAAKIKEDLRQLVNPNMIEDCPKPTIAAVNGLAFGMGCELAMACDFRIAAEKAQFGQPEVKLGIIPGAGGSQRLRELVGPTRALEMISTGDPIDAQEAYRIGLVNQVVPRDELMEAVNAFAGRLIDKGAVVLDICKKLVYEGGDLPLRGGIDYEQDQFCKILLTADAQEGTLAFLEKRKPVFNKG	failed
MSYKVLPLSEVMSHEFGLIEGNFHNISEADIASAIPSHLTFEQLKQHLYEGNLALVSDTPQTPALLSYNDPIGPKTWRLNSEVISELSDDAANNLLAITKTTRATGGYRSCIGETSTLERVYTPQPIATESEEEITKEFEYSFEVGCSDATIKKMVHSDFALAKTEKENAVTRWEQTNTEQGTRYTALCVFDEPKRLNIHIADDNLGLTPLEAVTLQKAGSCKTDEGFIPVVPAVRLGERLGLPTEGYYYHFNDGELVQEYKILGEEKWAFYATQSTQDKLNDERGFTKDQSAILVYWKLADQIIENQYIIYLERQITREELDNLSEDWLCENGIKLDIPALFDAVKQPEEARSEGNNDETQAEQTAATHTVTVGEDWQSIAELYGMGAKALLLLNPVFEADPLSLAVGDEIIVAEKQQQQAPDKKNTFPPLRPQTYNNIRNSHYQHSDPLLGLTKYRAINTADCIEGDVVILNLKDATSSIVFAKSCTRPEGCIEIGDQQESISNFGPWSFFFAQANANPAAVIPAIQATQAQMAMGSSAAVAGSPEQMQQTQTAAMQLDKLAGTLKEKIVEGYRWQVEGIGALFAMQQSLFGDNTQYTDQDLRQVTTAQSRVRVHITEPQGGEFYPHVQGYHVDDTRIPIKYVKQGNNGQLSVAIEENGPTIYWTPEENGEASWQTTPDHSDGFEKDDILVTPIHSDSDANVTVTPAPEEKDWRDAILVFPESSGIAPLYVVYKESPRDKPGVVTGKGEDIFGIWLADAGKDLGAPIPSQIADKLRGREFSSFDAFREGFWYAVGEDQTLINQFSRANQRLIKRGRSPFSLPSEQVGGRQRYELHHKEEIQYGGEVFHVDNLCVLTPKRHISIHKDQ	failed
MSYLDTATDLPNQTLFLEYLNIALSNARRHHAQVGVLLCQINNWSDLKRKRGDAVANAFLQEAGQKLKSNLRNGDIVSRWDKDEFIFLVSKVQDTSSLLGIAQRLMKPVLAPVTAGGRPFQPEITYGVALYPVDGEQVNDLIGHIRENLQQLLPQPTNPGSGLEHHHHHH	not failed
MSYNFEEERVIKEIREKNAKRVLLQFPEGLKYFSIDIVKKLREKLPNVNFIISGEPSWGACDIAEDEAQQVNADLIIHFGHTPYTWYYPKFPTIFINAESNLDISENALHSLENDISKYNGRKISLTATLQHVRLLSKIKSFLEDKGYDIVIGKPSNRFMFDGQVLGCDYKAAEVEADIYVIVSGGLFHALGLGLATNKPTIKLDPYLQKSEDITNDVRKILKVRYGKILQALDKRSWVIIQGVKVGQNRPNMIKYFYDKLTEKGYDVFTVTNKVLTLDILRNLDRNYIDVFLVTSCPRLPIDDLYNYEKPVLTPGEAKMIINNSLEPYIFPW	failed
MSYSKEVNRYVFPLVATNLVQVLIGQISLHFAVDNSNAALSGISVIQNFLFAFGGILGAFSLSFNIRGAKAFYNKEYQRFKNLLKSSLLIDIGIGLSFILFCLGLSRPFLKVFYGFDGQLLELSTTYFKIMSPYILLTLLIFLFSNLLKIEKKTKPIFWIGTLSSVLDVLLNYYLVPLLGIRGAAISSILSLLVIVLGYFIFVKSLVFQALQEASTSKLELIRFGIPLSIQEILESVLFIMAFDAFMGRQGLRILSIYAVVSQLFAIVRTPAFMYAGSIAIFLPEARKKEDEKALIATIFRNSYAVIFIFACLVTVFSNPFAHFLSDEVIDNVLPFTLYTVVVMGATPLYESSKMLLQSNDDEQWVLKITSIVNILSILILLVLQLMGKQTYQSLYGIYGLSLIVLSILFIKRNSEKRVSSRKMTM	failed
MTAASFAQILLLLGTTALVVAVFQWLRVPSSLAYLVVGVLLGPHTGGPVIENPEIHGAAEFGIVFLMFTIGLNLSLPQVHALRHLVLGLGTGQVVLTTLVVGAAAFAFGLSPEAAFVVGAVFAQSSTAIIGKQLAEQGEEYSRHGRLAVAMSVFQDVTAVPLIVVVPVLAVPSLRVLGESLAWALAKAVLAFVLVFFAGRWLLRPLFHAVASRRSAELFTLTVLLVSLGAGGLTYQLGLSVAFGAFLVGMMLGETEFRHQVESTIRPFRDVLLGLFFVSIGMLFDPSLMEGTWQWALGGAFVLLAAKTVLVAVLVRATGIDLATAWRVGLLVAVGGEFGFALLAIALDAGVISQLTGQIVLMAVLLSMITAPFLIRYNRVLVEGWFRPPPGEEGALSAGPGVAGSPHDHVIICGYGRIGQNIGRFLEEERIPYVALDLDPQRVKEARIACEPVYYGDSSERDMLEAVGIGKARLVVVSHEDLAAAHKVLHHAAALRPGLPVMVRTRDESHVEELRRAGAAEVVPETLEAGLMIASQALLLLNVPLSRVARRIREQRLNRYLLLREFFRGDETFSDDVQSQDGDRLRAVPLPPGCRVAGCTLAELALENVVVTALVRHGVRELAPAPETRLAEGDAVVLFGAVSDLDKAERRLLG	failed
MTAEILVFSLIIPLVVAFILPALKPKAATWLSAISFLIPMFVTLGFLLTTKETIEVPIMSLPAPVGEFYLLADPISNAFGFTICLVSAMVAFYSLPYMKHRFEEMLHDGEIRSIEWEFRKYWFLYNLYAVAMLWLVYAGNFILLYIFLEISLLASFLLIYMYGYGNRQWVAVLYFVWTHIAGVLALLGILIIGFENSTMAFNAVKAVGFTAWLLIFLGMLVKLPGLGPHIWLPWAHAEAPTPVSALLSPLTVGLAGYVLLRVYMIDSSFIDQYRDIIIAYAIVSSIYAGFSVFKQKDYKRLLAYSTVSQMGYVLIALCLGSYGLLGVVIQYISHAFGKSILFMTAGAIIASFHGLRDINRMSGMHEYVPTIANAALLGFMTLSGILTIGMFGEFYILAGLTTIYGFNLAVILAVVVVFIISGLYSFYTMKVIYYGTPAGYEKPKVSRLLDVPLYVVAFFSVAFIFPPLSTALLSGLKVVLGIGGVMP	failed
MTAGGPLITAALTAYDAEDTIAGALASALAQDWPSLEVLILDDASRDGTRKVIEAVITERGDQGPPIRLIALDKNGGVAQARNRLLAEAKGEVIAFFDDDDISAPDRLRRQYARLIAAERETGAGLVFCHAARCQILPDGGERLEGTMGEEGGPIPGGDAVVRRILLGTLSPGVRGSCATCSQMARTASYRALGGFDPTLRRAEDTDLCLRAALGGAVFAGLSAPLVTQRLTLGGDKTPREDHRAYQALLNKHRATLAKTGWLTFYARWQDIRLAHLEGRTGRVVLGLVGLGLSHPLKLARKIVWSLPAAGTRAAYHRQHRKDTS	failed
